Measurements from doi:10.1101/2021.08.28.458007v1.
Residue numbers refer to the chain shown, from its start. Numbers in names are those of the source.

B1: HsGSTO1-1 (Homo sapiens) (protein)
chain: SGESARSLGKGSAPPGPVPEGSIRIYSMRFCPFAERTRLVLKAKGIRHEVININLKNKPEWFFKKNPFGLVPVLENSQGQLIYESAITCEYLDEAYPGKKLLPDDPYEKACQKMILELFSKVPSLVGSFIRSQNKEDYAGLKEEFRKEFTKLEEVLTNKKTTFFGGNSISMIDYLIWPWFERLEAMKLNECVDHTPKLKLWMAAMKEDPTVSALLTSEKDWQGFLELYLQNSPEACDYGL
B2: PgDHAR (Cenchrus americanus) (protein)
chain: MAVEVCVKAAVGAPDILGDCPFSQRVLLTLEEKKITYEMKLVDLSNKPEWFLKISPEGKVPVFNSGDGKWIADSDVITQVIEEKFPTPSLVTPPEYASVGSKIFPSFVKFLKSKDASDGSEKALLDELQALDEHLKAHGPYISGENVSAADLSLGPKLFHLQVALEHFKGWKIPENLTSVHAYTKALFSRESFVKTKPANQYLIAGWAPKVNA
B3: PgDHAR (Cenchrus americanus; K8A) (protein)
chain: B2 chain with K8A
B4: PgDHAR (Cenchrus americanus; D19A) (protein)
chain: B2 chain with D19A

Substrate: O=C1O[C@H]([C@@H](O)CO)C(=O)C1=O
Test: purified protein
[1] = co-substrate GSH (2 mM), 50 mM phosphate pH 6.8, 0.2 mM EDTA
[2] = co-substrate GSH, 50 mM phosphate pH 6.8, 0.2 mM EDTA

| Protein | Km (co-substrate GSH, marked 'This study' (footnote a)) | Km [1] | kcat [1] [min⁻¹] | Km [2] | kcat [2] [min⁻¹] |
| --- | --- | --- | --- | --- | --- |
| B1 | 138.2 (±27.07) μM |  |  |  |  |
| B2 |  | 159.2 (±11.4) μM | 136299.8 |  |  |
| B3 |  |  |  | 1842 (±414.3) μM | 5360.4 |
| B4 |  |  |  | 245.7 (±75.7) μM | 1221 |
